In PMC1779432:

Biological target: Soluble HLA-DR4 (DRB1*0401) (human)

IL-4 secretion by pooled splenocytes and lymph node cells of CII-immunized DR4 transgenic mice (chimeric DR4 on the cells) cultured with 100 μg/ml peptide [pg/mL] | Substance
66 | CII(256-276)(F263N, E266A) analog peptide
48 | CII(256-276)(F263N, E266D) analog peptide
